The test system of data set [1] is normal human dermal fibroblasts (NHDF). Description: IL-6 ELISA. The data set is classed as cell-based. Conditions: 30 ng/ml recombinant cytokine, 24 h culture, ELISA of supernatant. The protocol: FIG. 12: IL-17B, IL-17C, IL-17D, IL-17E and IL-17F increase the production of pro-inflammatory IL-6 by normal human dermal fibroblasts (NHDF). NHDF were cultured for 24 h in complete adequate complete medium alone (medium) or in the presence of 30 ng/ml of recombinant human IL-17B, IL-17C, IL-17D, IL-17E or IL-17F as indicated. All isoforms increased the production of pro-inflammatory IL-6 by NHDF.
Normal human dermal fibroblasts (NHDF) were cultures in complete medium alone or supplemented with 30 ng/ml L of recombinant IL-17B, IL17C or IL17D as indicated. After […] of culture, supernatant are collected. IL-6 ELISA is performed with human IL-6 development kit (Peprotech) following manufacturer's instructions.
A general note: ELISA stands for enzyme-linked immunosorbent assay.

For data set [2], the system named is MDA-MB231 breast cancer cells. Put plainly: Matrigel invasion assay. Conditions: cultured 2 days with 100 ng/ml, Matrigel Invasion Chambers, 22 hours. The data set is classed as cell-based, human. As for the experimental part:
FIGS. 11A-11B: IL-17C and IL-17D increase invasion of MDA-MB231 breast cancer cells. MDA-MB231 were cultured for 2 days in complete adequate medium alone (medium) or supplemented with 100 ng/ml of recombinant human IL-17B, IL-17C or IL-17D as indicated. Cell invasiveness was then evaluated in Matrigel Invasion Chambers (A, representative photomicrographs, B, quantification).
(§1) Cells were cultured in adequate complete medium supplemented with 100 ng/ml of recombinant cytokines for 2 days (MDA-MB231) or 14 days (OAW42). Matrigel Invasion Chambers (BD BioCoat™ BD Matrigel™ Invasion Chamber, 24-well Cell culture inserts) were then used to study the invasiveness of cancer cells. 2.10^4 cells are then added to the upper compartment of the chambers in 1% FCS adequate medium alone or supplemented with 100 ng/ml of recombinant cytokines as indicated. Medium supplemented with 10% FCS is added to the lower wells of the chambers. Plates are incubated for 22 hours at 37° C. Transwell filters are then fixed and stained in Giemsa solution following which non-invading cells are removed from the upper surface of the transwell membrane using a cotton swab. Images of cells from three representative fields are captured digitally and the number of cells present on the transwell is counted.

Data set [3] deals with MCF7 breast cancer cells. Put plainly: Cell proliferation assay ([3H]-TdR). The class given is cell-based, human. Conditions: [3H]-TdR incorporation at 72 h, increasing doses of recombinant cytokine (0 to 100 ng/ml). As for the experimental part:
(§2) FIGS. 7A-7D: IL-17B increases the proliferation of breast cancer cells. T47D (A), MCF7 (B), MDA-MB436 (C) and MDA-MB468 (D) cells were cultured in adequate complete medium supplemented with increasing doses of recombinant human IL-17B as indicated. Cell proliferation was assessed at 72 h using tritiated thymidine ([3H]-TdR) incorporation protocol.
(§3) FIGS. 10A-10F: IL-17C and IL-17D increase the proliferation of breast and ovarian cancer cells. OAW42 (ovarian, A), MCF7 (breast, B) and T47D (breast, C) cells were cultured in adequate complete medium supplemented with increasing doses of recombinant human IL-17C as indicated. Cell proliferation was assessed at 72 h using tritiated thymidine ([3H]-TdR) incorporation protocol. OAW42 (D), MCF7 (E) and T47D (F) cells were cultured in adequate complete medium supplemented with increasing doses of recombinant human IL-17D as indicated. Cell proliferation was assessed at 72 h using tritiated thymidine ([3H]-TdR) incorporation protocol.
(§4) HCT116, HT29, and SKOV3 cell lines were cultured in McCoy5a medium (Life technologies) supplemented with 10% FCS, 2% glutamine and 1% antibiotics (Life technologies). MCF7, T47D, MDA-MB231 and BT20 cell lines were cultured in RPMI 1640 medium supplemented as described above. SKMEL5, LOVO, OAW42, MDA-MB435S, MDA-MB436, MDA-MB468 cell lines and normal human dermal fibroblasts (NHDF) were grown in DMEM/F12 medium (Life Technologies) supplemented as described above. MCF10A cell line was maintained in DMEM/F12 medium (Life Technologies) supplemented as described above and with 10 μg/ml insulin, 0.5 μg/ml hydrocortisone, 20 ng/ml EGF and 100 ng/ml cholera toxin. MDA-MB157 cell line was cultured in DMEM medium (Life technologies) supplemented with 10% FCS, 2% glutamine and 1% antibiotics. All cells were kept at 37° C. in 5% CO2 atmosphere incubator.
(§5) 400 cells are seeded per well in 96 well plate (Corning) and kept overnight in adequate complete medium. Medium is then removed and replaced with adequate complete medium supplemented with 0 to 100 ng/ml of cytokines as indicated. Each condition is performed in triplicate. After 72 h of culture, cells were pulsed for 16 h with tritiated thymidine ([3H]-TdR) (0.5 μCi) and harvested. [3H]-TdR uptake was measured using PerkinElmer microβ2 2450 microplate counter.

In data set [4] the test system is OAW42 ovarian cancer cells. Description: Cell proliferation assay ([3H]-TdR). The class given is cell-based, human. The note with it: [3H]-TdR incorporation at 72 h, increasing doses of recombinant cytokine (0 to 100 ng/ml). As for the experimental part:
as §3
HCT116, HT29, and SKOV3 cell lines were cultured in McCoy5a medium (Life technologies) supplemented with 10% FCS, 2% glutamine and 1% antibiotics (Life technologies). MCF7, T47D, MDA-MB231 and BT20 cell lines were cultured in RPMI 1640 medium supplemented as described above. SKMEL5, LOVO, OAW42, MDA-MB435S, MDA-MB436, MDA-MB468 cell lines and normal human dermal fibroblasts (NHDF) were grown in DMEM/F12 medium (Life Technologies) supplemented as described above. […]
(§6) 400 cells are seeded per well in 96 well plate (Corning) and kept overnight in adequate complete medium. […] [3H]-TdR uptake was measured using PerkinElmer microβ2 2450 microplate counter.

The subject of data set [5] is T47D breast cancer cells. Put plainly: Cell proliferation assay ([3H]-TdR). The data set is classed as cell-based, human. The note with it: [3H]-TdR incorporation at 72 h, increasing doses of recombinant cytokine (0 to 100 ng/ml). The protocol: as §2, §3, §4, §5
Data set [6] deals with MDA-MB436 breast cancer cells. Put plainly: Cell proliferation assay ([3H]-TdR). The data set is classed as cell-based, human. The note with it: [3H]-TdR incorporation at 72 h, increasing doses of recombinant cytokine (0 to 100 ng/ml). As for the experimental part: as §2, §4, §6
The test system of data set [7] is MDA-MB468 breast cancer cells. Put plainly: Cell proliferation assay ([3H]-TdR). The class given is cell-based, human. Conditions: [3H]-TdR incorporation at 72 h, increasing doses of recombinant cytokine (0 to 100 ng/ml). The protocol:
as §2, §4, §6

The test system of data set [8] is OAW42 ovarian cancer cells. Description: Matrigel invasion assay. The note with it: cultured 14 days with 100 ng/ml, Matrigel Invasion Chambers, 22 hours. The class given is cell-based, human. The protocol: (§7) FIGS. 8A-8C: IL-17B increases migration and invasion of breast and ovarian cancer cells. OAW42 (ovarian, A) and MCF7 (breast, B) cells were cultured in complete adequate complete medium alone (Ctl) or supplemented with 100 ng/ml of recombinant human IL-17B (IL-17B) as indicated. Cell migration was evaluated in transwell migration assay. (C) OAW42 cells were cultured for 14 days in adequate complete medium alone (Ctl) or supplemented with 100 ng/ml of recombinant human IL-17B (IL-17B) as indicated. Cell invasiveness was then evaluated in Matrigel Invasion Chambers.
as §1, with “Transwell filters are then fixed and stained in Giemsa solution following which non-invading cells are removed from the upper surface of the transwell membrane using a cotton swab.” left out

The test system of data set [9] is MCF7 breast cancer cells. Description: Cytotoxicity assay, doxorubicin-induced cell death. The data set is classed as cell-based. Conditions: cytokine 1 or 10 ng/ml, doxorubicin 20 or 30 μM for 7 h. As for the experimental part:
(§8) FIGS. 9A-9F: IL-17B inhibits docetaxel and doxorubicin-induced cell death. MCF7 (A), T47D (B), MDA-MB436 (C), BT20 (D) and MDA-MB468 (E) breast cells were cultured for 48 h in adequate complete medium alone (medium) or treated with recombinant human IL-17B at 1 or 10 ng/ml as indicated. Cells were then culture in Fetal Calf Serum (FCS) free medium supplemented with corresponding concentration of cytokine for 24 h and then further supplemented with docetaxel at 5, 10, 20 or 40 μg/ml as indicated for 7 h. The percentage of cell death (=cytotoxicity) was determined using the Cytotoxicity Detection Kit (Roche). (F) MCF7 cells were cultured for 48 h in adequate complete medium alone (medium) or treated with recombinant human IL-17B at 1 or 10 ng/ml as indicated. […] The percentage of cell death (=cytotoxicity) was determined using the Cytotoxicity Detection Kit (Roche). […]
(§9) The percentage of cell death (=cytotoxicity) was determined after 7 h of culture in the presence of docetaxel or doxorubicin using the Cytotoxicity Detection Kit (Roche) according to the manufacturer's instructions. […] Optical density was then read at 490 nm. The percentage of cytotoxicity is calculated as followed: %=100×(exp value−control medium value)/(Triton X100 treated cells value−control medium value)

Data set [10] has as its system OAW42 ovarian cancer cells. Description: Transwell migration assay. The class given is cell-based, human. The note with it: 100 ng/ml, 22 hours. The protocol: as §7
(§10) Migration Assay 20,000 cells were seeded on the upper chamber of trans well chambers in 1% FCS adequate medium alone (medium) or supplemented with recombinant human IL-17B (100 ng/ml) for 22 hours at 37° C. as indicated. The cells on the transwell were stained with 0.5% crystal violet prior imaging and enumeration. The number of cells migrated onto the transwell were counted (magnification ×4). The graph presents data after quantification in % of cell migration compared to non-treated cells. Results are the mean+/−SEM of two independent experiments, each performed in triplicate.

Data set [11] deals with MCF7 breast cancer cells. Description: Transwell migration assay. The class given is cell-based, human. Conditions: 100 ng/ml, 22 hours. The protocol: as §7, §10
Data set [12] deals with MDA-MB231 cells. Description: Cell proliferation assay ([3H]-TdR). The class given is cell-based, human. The note with it: MDA-MB231 cells that do not express IL-17RB; data not shown. The protocol:
as §4, §5

The test system of data set [13] is breast cancer cell lines that express IL-17RB. Description: Cytotoxicity assay, docetaxel-induced cell death. The class given is cell-based. The note with it: MCF7, T47D, MDA-MB436, BT20, MDA-MB468; cytokine 1 or 10 ng/ml; docetaxel 5, 10, 20 or 40 μg/ml for 7 h. As for the experimental part: as §8, §9

B1: IL-17D: recombinant human IL-17D, interleukin 17 isoform, receptor unknown (protein, UniProt Q8TAD2 16-202, looked up)
Interleukin-17D: AGAPRAGRRPARPRGCADRPEELLEQLYGRLAAGVLSAFHHTLQLGPREQARNASCPAGGRPADRRFRPPTNLRSVSPWAYRISYDPARYPRYLPEAYCLCRGCLTGLFGEEDVRFRSAPVYMPTVVLRRTPACAGGRSVYTEAYVTIPVGCTCVPEPEKDADSINSSIDKQGAKLLLGPNDAPAGP
In the case of B1, in data set [1], the “production of pro-inflammatory IL-6” value is “increase”. Moreover, the cell invasiveness result in data set [2] is “increased”. The cell proliferation entry in data set [3] and in data set [4] was “increased” each time.

B2: IL-17F: recombinant human IL-17F, interleukin 17 isoform (protein, UniProt Q96PD4 31-163, looked up)
Interleukin-17F: RKIPKVGHTFFQKPESCPPVPGGSMKLDIGIINENQRVSMSRNIESRSTSPWNYTVTWDPNRYPSEVVQAQCRNLGCINAQGKEDISMNSVPIQQETLVVRRKHQGCSVSFQLEKVLVTVGCTCVTPVIHHVQ
As for B2, in [1], the “production of pro-inflammatory IL-6” value is given as “increase”.

B3: IL-17C: recombinant human IL-17C, interleukin 17 isoform that binds IL-17RE (protein)
chain: HHDPSLRGHPHSHGTPHCYSAEELPLGQAPPHLLARGAKWGQALPVALVSSLEAASHRGRHERPSATTQCPVLRPEEVLEADTHQRSISPWRYRVDTDEDRYPQKLAFAECLCRGCIDARTGRETAALNSVRLLQSLLVLRRRPCSRDGSGLPTPGAFAFHTEFIHVPVGCTCVLPRSV
As for B3, in data set [1], the “production of pro-inflammatory IL-6” value is “increase”. The cell invasiveness entry in data set [2] is reported as “increased”. Besides, the cell proliferation entry in data set [5], in data set [3] and in data set [4] was “increased” in each case.

B4: IL-17E: recombinant human IL-17E (=IL-25), interleukin 17 isoform (protein, UniProt Q9H293 33-177, looked up)
Interleukin-25: YSHWPSCCPSKGQDTSEELLRWSTVPVPPLEPARPNRHPESCRASEDGPLNSRAISPWRYELDRDLNRLPQDLYHARCLCPHCVSLQTGSHMDPRGNSELLYHNQTVFYRRPCHGEKGTHKGYCLERRLYRVSLACVCVRPRVMG
Regarding B4, the “production of pro-inflammatory IL-6” value in data set [1] is given as “increase”.

B5: IL-17B: recombinant human IL-17B, interleukin 17 isoform that binds IL-17RB (protein)
chain: QPRSPKSKRKGQGRPGPLAPGPHQVPLDLVSRMKPYARMEEYERNIEEMVAQLRNSSELAQRKCEVNLQLWMSNKRSLSPWGYSINHDPSRIPVDLPEARCLCLGCVNPFTMQEDRSMVSVPVFSQVPVRRRLCPPPPRTGPCRQRAVMETIAVGCTCIF
As for B5, the cell proliferation result in [6] is listed as “increased”; in data set [7] it was “increased”; in [5] it was “increased”; in data set [3] it was “increased”; in [12], “did not stimulate”. Also, the cell invasiveness entry in data set [8] was “increased”; in data set [2] it was “did not increase”. Moreover, in [1], the “production of pro-inflammatory IL-6” value is “increase”. Further, the “doxorubicin-induced cell death (cytotoxicity)” value in data set [9] was “protected”. The cell migration result in [10] and in [11] was “increased” in each case. In [13], the “docetaxel-induced cell death (cytotoxicity)” value is given as “decreased”.

(Values after patent US10351623B2, “Antagonists of IL-17 isoforms and their uses” (Orega Biotech, priority 2012, dated 2019).)
